{
  "source": "patent US20200317755A1",
  "key": {"[1]": {"molecular_target": "T1, panel of four distinct ZIKV strains (H/PF/2013; MR766, MRS-OPY and PV 10552)", "test": "cell-based or functional assay"}, "[2]": {"molecular_target": "T1, panel of four distinct ZIKV strains …", "test": "cell-based or functional assay", "remark": "listed apart in the source"}},
  "note": "Read-outs that look alike come from different tables or passages of the source.",
  "data": [
    {"binder": "ZKA190 (antibody, V domains shown) VH: QVQLVESGGGVVQPGRSLRLSCAASGFTFSKYGMHWVRQAPGKGLEWVAVISYEGSNKYYADSVKGRFTISRDNSKNTLYLQMNSLRAEDTAVYYCAKSGTQYYDTTGYEYRGLEYFGYWGQGTLVTVSS VL: EIVLTQSPGTLSLSPGERATLSCRASQSVSSSYLAWYQQKRGQAPRLLIYDASSRATGIPDRFSGSGSGTDFTLTISRLEPEDFAVYYCQQYGRSRWTFGQGTKVEIK", "values": [
      {"measurement": "IC50, neutralization of four ZIKV strains on Vero cells (flow cytometry)", "setting": "[1]", "value": "0.6 to 8", "unit": "ng/mL"},
      {"measurement": "IC50, neutralization of four ZIKV strains on Vero cells (flow cytometry)", "setting": "[2]", "value": "4 to 50", "unit": "pM"}
    ]}
  ]
}
